Test [1] concerns the target HLA-DR, human (human). The test is described as follows: Scatchard analysis, normal B cells (Table 11: tonsil lymphocytes) compared with ARH-77 tumor cells.
The target in test [2] is HLA-DR, human (human). Nature of the test: Scatchard plot analysis, avidity constant on tonsil lymphocytes.
Test [3] deals with HLA-DR, human (human). The test is described as follows: Scatchard plot analysis, avidity constant on tumor cell line (ARH-77 myeloma cells).
The target in test [4] is HLA-DR, human (human). Nature of the test: Scatchard plot analysis, avidity constant on tumor cell line (Raji cells).
The target of test [5] is HLA-DR, human (human). The test is described as follows: Scatchard analysis, normal B cells (Table 11: tonsil lymphocytes) compared with Raji tumor cells.

B1: Lym-2 (antibody, V domains shown)
VH: EVQLEESGGGLVQPGGSMKLSCVASGFTFSNYWMNWVRQSPEKGLEWVAEIRFKSHNYATHFAESVKGRFTISRDDSKSSVYLQMNNLRAEDTGIYYCTRRIGNSDYDWWYFDVWGAGTSVTVSS
VL: DIVMTQSHKFMSTSVGDRVSVTCKASQNVGNNVAWYQQKPGQSPKVLIYSASYRYSGVPDRFTGSGSGTDFTLTISNVQSEDLAEYFCQQYNTYPFTFGSGTKLEIK
Turning to B1, in test [1], the “fold decrease in binding affinity (normal B cells against tumor cells)” value worked out at 2 fold. Also, the Ka was 1.23e+08 M⁻¹ in test [2] and 2.33e+08 M⁻¹ in test [3].

B2: Lym-1 (antibody, V domains shown)
VH: QLKESGPGLVAPSQSLSITCTISGFSLTSYGVHWVRQPPGKGLEWLVVIWSDGSTTYNSALKSRLSISKDNSKSQVFLKMNSLQTDDTAIYYCASHYGSTLAFASWGHGTLVTVSA
VL: DIQMTQSPASLSASVGETVTIICRASVNIYSYLAWYQQKQGKSPQLLVYNAKILAEGVPSRFSGSGSGTQFSLKINSLQPEDFGSYYCQHHYGTFTFGSGTKLEIK
B2: the Ka in test [4] came out at 4.02e+08 M⁻¹; in test [2] it was 8.8e+07 M⁻¹. For the same molecule, the “fold decrease in binding affinity (normal B cells against tumor cells)” value in test [5] worked out at 4 fold.

The record behind these values is patent EP3515493A1 (dated 2019).
